Source: patent publication US7838294B2, “Inhibitors of the JNK signal transduction pathway and methods of use” (University of Massachusetts, priority 1997, dated 2010)

How the values were obtained:
JNK1 = target: T1, JNK1 (Homo sapiens, UniProt P45983); experiment: Co-immunoprecipitation of JIP-1 with JNK1 in transfected COS-1 cells; assay type: binding
T1 construct: expressed in transfected cells
Protocol: To test whether JIP-1 and JNK interact in vivo, co-immunoprecipitation analysis was performed. COS-1 cells were mock-transfected or transfected with JIP-1 and JNK1 expression vectors. Constructs expressing epitope (HA) tagged JNK1 have been described previously. Dérijard et al., supra; Sluss et al., supra; Gupta et al., supra. Mammalian JIP-1 expression vectors were constructed by subcloning the JIP-1 cDNA into the XbaI and HindIII sites of pCMV5 and the HindIII and EcoRI sites of pcDNA3 (Invitrogen Inc.). DNA encoding the Flag epitope, -Asp-Tyr-Lys-Asp-Asp-Asp-Asp-Lys- (SEQ ID NO:14) (Immunex Corp.), was inserted into JIP-1 cDNA between the DNA encoding the first two codons of JIP-1 using insertional overlapping polymerase chain reaction (PCR). Ho et al., Gene, 77:51 (1989). Bacterial JIP-1 expression vectors were constructed by subcloning PCR fragments of the JIP-1 cDNA into the EcoRI and XbaI sites of pGEX-3× (Pharmacia LKB Biotechnology Inc.). GST fusion proteins were purified by affinity chromatography on GSH-agarose as described previously. Smith et al., Gene, 67:31 (1988). […]
For the co-immunoprecipitation experiments, transfected or mock-transfected cells were irradiated with or without UV-C (40 J/m^2) and incubated for one hour. […] Immune complexes were detected with a second antibody coupled to horseradish peroxidase and enhanced chemiluminescence (Amersham International PLC).

[1] = test system: ATF2 transcriptional activity; experiment: GAL4 luciferase reporter assay in CHO cells: GAL4-ATF2; assay type: cell-based, Chinese hamster
Protocol: In these experiments, CHO cells were cotransfected with constructs encoding the transcription factors and JIP-1 using previously described methods. Dérijard et al., supra; Sluss et al., supra; Gupta et al., supra. A luciferase reporter plasmid was used to monitor the expression of the transcription factors. Transfection efficiency was determined using a β-galactosidase expression vector. Constructs used in these experiments included GAL4 fusions with the c-myc, Sp1 and VP16 activation domains (described in Whitmarsh et al., Science, 269:403 (1995); Davis, Science, 269:403 (1995); Gille et al., Curr. Biol., 5:1191 (1995)). Other constructs used were GAL4-c-Jun, in which GAL4 is fused to c-Jun; GAL4-c-Jun (S63A/S73A), in which GAL4 is fused to a mutant c-Jun in which the serines at positions 63 and 73 have been changed to alanines; GAL4-ATF2, in which GAL4 is fused to wild type ATF2 (ATF2(Thr-69, 71)); GAL4-ATF2 (T69A/T71A) (ATF2(Ala-69/71)), in which GAL4 has been fused to a mutant ATF2 in which the […] at positions 69 and 71 have been changed to alanines; GAL4-Elk-1, in which GAL4 has been fused to Elk-1; and GAL4-Elk-1 (S383A), in which GAL4 has been fused to a mutant Elk-1 in which the serine at position 383 has been changed to an alanine. Gupta et al., EMBO J, 15:2760-2770 (1996); Raingeaud et al., Mol. Cell. Biol., 16:1247-1255 (1996); Whitmarsh et al. Science, 269:403-407 (1995).
Insertional overlapping PCR, described in detail in Ho, supra, was used to construct expression vectors for the JNK binding domain (JBD; amino acid residues 127-281) of JIP-1 and for a mutant JIP-1 lacking the SH3 (amino acid residues 491-540) domain.
Transfected cells were activated by treatment with 10% (v/v) fetal calf serum, and luciferase and β-galactosidase activities were measured in cell lysates at 48 hours post-transfection. The data are presented as the ratio of luciferase activity (light units) to β-galactosidase activity (OD units) measured in the cell extracts (mean±SEM (n=3)), and are normalized to the luciferase activity detected in the absence of JBD (FIGS. 4A and 4B) or ATF2 (FIG. 4C).

p38 MAP kinase = target: T2, p38 MAP kinase (Homo sapiens, UniProt Q16539); experiment: Immunofluorescence: subcellular distribution of p38 MAP kinase on JIP-1 expression; assay type: cell-based
T2 construct: expressed in transfected cells
T2 sequence (Q16539 whole entry): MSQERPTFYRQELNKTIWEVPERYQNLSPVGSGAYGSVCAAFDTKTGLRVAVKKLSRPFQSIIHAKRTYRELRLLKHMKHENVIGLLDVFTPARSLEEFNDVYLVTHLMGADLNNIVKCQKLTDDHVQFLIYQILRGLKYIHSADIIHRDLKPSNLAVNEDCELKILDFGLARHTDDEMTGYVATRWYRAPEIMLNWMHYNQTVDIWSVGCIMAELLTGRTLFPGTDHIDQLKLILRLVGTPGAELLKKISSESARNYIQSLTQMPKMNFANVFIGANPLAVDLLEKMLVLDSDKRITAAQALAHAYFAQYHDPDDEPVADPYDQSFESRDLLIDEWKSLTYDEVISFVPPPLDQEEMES

T1 sequence (P45983 1-384 isoform P45983-2): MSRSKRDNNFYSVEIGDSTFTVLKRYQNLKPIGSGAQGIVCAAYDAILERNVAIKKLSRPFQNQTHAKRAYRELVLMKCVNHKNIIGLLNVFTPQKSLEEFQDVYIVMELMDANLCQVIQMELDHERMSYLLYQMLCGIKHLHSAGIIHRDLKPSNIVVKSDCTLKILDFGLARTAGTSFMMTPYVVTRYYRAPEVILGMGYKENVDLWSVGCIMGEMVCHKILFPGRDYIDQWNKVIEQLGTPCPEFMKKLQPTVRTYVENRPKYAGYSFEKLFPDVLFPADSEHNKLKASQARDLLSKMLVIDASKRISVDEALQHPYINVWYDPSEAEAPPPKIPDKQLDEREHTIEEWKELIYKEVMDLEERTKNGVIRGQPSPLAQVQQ

B1: JIP-1: 660 amino acid murine cytoplasmic protein that specifically binds JNK (protein)
chain: MAERESGLGGGAASPPAASPFLGLHIASPPNFRLTHDISLEEFEDEDLSEITDECGISLQCKDTLSLRPPRAGLLSAGSSGSAGSRLQAEMLQMDLIDAAGDTPGAEDDEEEEDDELAAQRPGVGPPKAESNQDPAPRSQGQGPGTGSGDTYRPKRPTTLNLFPQVPRSQDTLNNNSLGKKHSWQDRVSRSSSPLKTGEQTPPHEHICLSDELPPQGSPVPTQDRGTSTDSPCRRSAATQMAPPSGPPATAPGGRGHSHRDRIHYQADVRLEATEEIYLTPVQRPPDPAEPTSTFMPPTESRMSVSSDPDPAAYSVTAGRPHPSISEEDEGFDCLSSPERAEPPGGGWRGSLGEPPPPPRASLSSDTSALSYDSVKYTLVVDEHAQLELVSLRPCFGDYSDESDSATVYDNCASASSPYESAIGEEYEEAPQPRPPTCLSEDSTPDEPDVHFSKKFLNVFMSGRSRSSSAESFGLFSCVINGEEHEQTHRAIFRFVPRHEDELELEVDDPLLVELQAEDYWYEAYNMRTGARGVFPAYYAIEVTKEPEHMAALAKNSCVLEISVRGVKIGVKADDALEAKGNKCSHFFQLKNISFCGYHPKNNKYFGFITKHPADHRFACHVFVSEDSTKALAESVGRAFQQFYKQFVEYTCPTEDIYLE
co-immunoprecipitation of JIP-1 with JNK1 (JNK1; COS-1 cells transfected with Flag-JIP-1 and HA-JNK1, protein immunoblot): detected in JNK1 immunoprecipitates | change in amount of JNK/JIP-1 complex on exposure to UV radiation (JNK1; UV-C 40 J/m2, one hour, co-immunoprecipitation): no significant change | basal transcriptional activity of ATF2 mutated at JNK phosphorylation sites ([1]; GAL4-ATF2 (T69A/T71A), FIG. 4B): not markedly inhibited | JNK-regulated gene expression ([1]; GAL4-ATF2 reporter, CHO cells, FIG. 4C): inhibition | ATF2 transcriptional activity ([1]; wild type GAL4-ATF2, CHO cells, FIG. 4B): Significant inhibition | subcellular distribution of p38 MAP kinase (p38 MAP kinase): no significant effect
